Test results published in patent US20210253716A1.

Key:
[1] = target: full length wild type human ACVR1 on HEK293/BRE-luc/hACVR1-wild type cells (human) (UniProt Q04771); experiment: flow cytometry, secondary antibody alone (66.6 nM run), HEK293/hACVR1-wt cells
[2] = target: full length human ACVR1 (R206H) on HEK293/BRE-luc/hACVR1-R206H-clone H2 cells (human) (UniProt Q04771); experiment: flow cytometry, secondary antibody alone (66.6 nM run), HEK293/hACVR1-R206H cells
[3] = target: full length human ACVR1 (R206H) on HEK293/BRE-luc/hACVR1-R206H-clone H2 cells (human) (UniProt Q04771); experiment: flow cytometry, secondary antibody alone (70 nM run), HEK293/hACVR1-R206H cells
[4] = target: mouse ACVR1 extracellular domain expressed with a C-terminal myc-myc-hexahistidine tag (mouse); experiment: SPR (Biacore), mAb captured, 25 C
Chain of mouse ACVR1 extracellular domain expressed with a C-terminal myc-myc-hexahistidine tag (mouse) (chain, as listed by the source limits assumed): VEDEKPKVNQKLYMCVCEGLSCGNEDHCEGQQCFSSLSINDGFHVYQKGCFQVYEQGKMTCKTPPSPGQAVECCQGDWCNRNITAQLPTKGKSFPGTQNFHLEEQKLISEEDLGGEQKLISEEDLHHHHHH

[5] = target: human ACVR1 extracellular domain expressed with a C-terminal myc-myc-hexahistidine tag (human); experiment: SPR (Biacore), mAb captured, 25 C
Chain of human ACVR1 extracellular domain expressed with a C-terminal myc-myc-hexahistidine tag (human) (chain, as listed by the source limits assumed): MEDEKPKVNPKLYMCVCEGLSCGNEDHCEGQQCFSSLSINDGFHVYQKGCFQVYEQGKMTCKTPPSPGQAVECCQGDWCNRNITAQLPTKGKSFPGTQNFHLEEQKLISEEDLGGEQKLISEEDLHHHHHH

[6] = target: human ACVR1 extracellular domain expressed with a C-terminal mouse IgG2a Fc tag (human); experiment: SPR (Biacore), mAb captured, 25 C
Chain of human ACVR1 extracellular domain expressed with a C-terminal mouse IgG2a Fc tag (human) (chain, as listed by the source limits assumed): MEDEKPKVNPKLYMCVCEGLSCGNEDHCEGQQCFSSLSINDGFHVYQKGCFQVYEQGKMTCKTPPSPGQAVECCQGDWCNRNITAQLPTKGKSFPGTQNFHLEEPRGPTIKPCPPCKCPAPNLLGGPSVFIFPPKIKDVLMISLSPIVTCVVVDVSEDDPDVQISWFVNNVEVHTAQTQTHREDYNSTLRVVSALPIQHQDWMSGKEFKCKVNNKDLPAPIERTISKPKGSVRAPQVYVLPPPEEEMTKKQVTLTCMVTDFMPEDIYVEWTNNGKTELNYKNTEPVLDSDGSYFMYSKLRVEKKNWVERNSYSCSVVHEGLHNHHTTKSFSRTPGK

[7] = target: mouse ACVR1 extracellular domain expressed with a C-terminal myc-myc-hexahistidine tag (mouse); experiment: SPR (Biacore), mAb captured, 37 C
[8] = target: human ACVR1 extracellular domain expressed with a C-terminal myc-myc-hexahistidine tag (human); experiment: SPR (Biacore), mAb captured, 37 C
[9] = target: human ACVR1 extracellular domain expressed with a C-terminal mouse IgG2a Fc tag (human); experiment: SPR (Biacore), mAb captured, 37 C
[10] = target: full length human ACVR1 (R206H) on HEK293/BRE-luc/hACVR1-R206H-clone H2 cells (human) (UniProt Q04771); experiment: flow cytometry, 70 nM antibody, HEK293/hACVR1-R206H cells
[11] = target: full length human ACVR1 (R206H) on HEK293/BRE-luc/hACVR1-R206H-clone H2 cells (human) (UniProt Q04771); experiment: flow cytometry, 66.6 nM antibody, HEK293/hACVR1-R206H cells
[12] = target: full length wild type human ACVR1 on HEK293/BRE-luc/hACVR1-wild type cells (human) (UniProt Q04771); experiment: flow cytometry, 66.6 nM antibody, HEK293/hACVR1-wt cells
[13] = target: full length human ACVR1 (R206H) on HEK293/BRE-luc/hACVR1-R206H-clone H2 cells (human) (UniProt Q04771); experiment: cell-based or functional assay

Chain of full length human ACVR1 (R206H) on HEK293/BRE-luc/hACVR1-R206H-clone H2 cells (human) (Q04771 21-509 R206H): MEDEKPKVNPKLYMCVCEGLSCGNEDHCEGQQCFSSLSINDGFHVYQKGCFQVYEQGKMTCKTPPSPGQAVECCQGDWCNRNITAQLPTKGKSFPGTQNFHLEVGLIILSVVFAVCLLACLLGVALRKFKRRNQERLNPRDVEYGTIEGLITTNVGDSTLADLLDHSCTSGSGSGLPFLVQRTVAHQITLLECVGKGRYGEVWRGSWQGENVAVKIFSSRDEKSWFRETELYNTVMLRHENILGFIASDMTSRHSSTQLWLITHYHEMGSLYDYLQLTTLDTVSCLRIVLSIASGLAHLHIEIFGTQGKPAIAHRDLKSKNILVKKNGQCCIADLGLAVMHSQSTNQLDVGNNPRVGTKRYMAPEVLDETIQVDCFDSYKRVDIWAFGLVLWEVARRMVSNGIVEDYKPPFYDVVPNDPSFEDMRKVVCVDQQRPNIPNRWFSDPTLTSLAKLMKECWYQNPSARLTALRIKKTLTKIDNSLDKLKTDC
Chain of full length wild type human ACVR1 on HEK293/BRE-luc/hACVR1-wild type cells (human) (Q04771 21-509): as the sequence (Q04771 21-509 R206H) above, with H186R counted along it

“Alexa Fluor-647 conjugated secondary antibody (Jackson ImmunoResearch, anti-human #109-607-003), alone” showed an MFI - Normalized to Unstained Control [1] of 1 fold, an MFI - Normalized to Unstained Control [2] of 1 fold and an MFI - Normalized to Unstained Control [3] of 1 fold.

In the case of “hIgG4 isotype control antibody (REGN1945)”, the 900 nM or 100 nM Ag Bound (RU) [4] was -2 RU, the 900 nM or 100 nM Ag Bound (RU) [5] was 1 RU and the 100 nM Ag Bound (RU) [6] was -2 RU. The 900 nM or 100 nM Ag Bound (RU) [7] was 0 RU, the 900 nM or 100 nM Ag Bound (RU) [8] was 0 RU and the 100 nM Ag Bound (RU) [9] was -1 RU. It also gave an MFI - Normalized to Unstained Control [10] of 3 fold, an MFI - Normalized to Unstained Control [11] of 1 fold and an MFI - Normalized to Unstained Control [12] of 3 fold.

“human Activin A (R&D System 338-AC) (from UniProt P08476 311-426) (ligand)” was tested, and the EC50 [M], BRE-luc reporter activation by ligand [13] was 3.33e-10 M.

“human Bone Morphogenetic Protein 7 (R&D System 354-BP/C) (from UniProt P18075 293-431) (ligand)” showed an EC50 [M], BRE-luc reporter activation by ligand (run with 2 nM hBMP7) [13] of 1.22e-09 M and an EC50 [M], BRE-luc reporter activation by ligand (run with 3 nM hBMP7) [13] of 2.97e-10 M.
